Data: patent US5576294A, “Human Kunitz-type protease inhibitor variant” (Novo Nordisk A/S, priority 1992, dated 1996)
Where two headings read alike, the source gives them in different places. Values belong to the substance of their own block, whether it stands above or below them.

Columns and labels:
[1] = molecular target: Porcine trypsin (porcine) (UniProt P00761)
[2] = molecular target: Porcine trypsin (porcine) (UniProt P00761); assay: proteinase inhibition: enzyme incubated 30 min with KFN 1593, residual activity on peptidyl nitroanilide substrate at 405 nm
[3] = molecular target: Factor Xa (as used in Example 3) (Homo sapiens (Human)) (UniProt P00742); assay: as above
[4] = molecular target: T1, plasma kallikrein (Homo sapiens, UniProt P03952); assay: Inhibition of serine proteinases: plasma kallikrein; assay type: biochemical; conditions: Example 8; enzyme 3 nM, substrate S2302 0.6 mM, 30 min incubation; read-out: Apparent Ki (nM), Pl. kallikrein
Description: (§1) KFN 1593 was purified from yeast culture medium as described in example 1. The concentration of KFN 1593 was determined using 1% E280 nm =8.3 and Mw =6500. Porcine trypsin was from Novo Nordisk (Bagsv.ae butted.rd, Denmark), bovine chymotrypsin (TLCK treated) and porcine pancreatic kallikrein was from Sigma Chemical Co (St. Louis, Mo., U.S.A.), human plasmin and human plasma kallikrein was from Kabi (Stockholm, Sweden).
(§2) Human neutrophil elastase and cathepsin G was purified from extracts of PMNs according to the method described by Baugh and Travis (Biochemistry 15 (1976) 836-843). Peptidyl nitroanilide substrates, S2251, S2586, S2266, S2302 were from Kabi (Stockholm, Sweden). M4765 and S7388 was from Sigma Chemical Co (St. Louis, Mo., U.S.A.) and FXa-1 was from NycoMed (Oslo, Norway).
(§3) Serine proteinases were incubated with various concentrations of KFN 1593 for 30 min. Substrate was then added and residual proteinase activity was measured at 405 nm.
(§4) The three TFPI (domain II) variants were purified from yeast culture medium. Their concentrations were determined from the absorbance at 214 nm using BPTI as a standard. The final concentration was determined by titration with trypsin. Porcine trypsin and human recombinant proteins, factor VIIa, activated protein C (ACP), and tPA were obtained from Novo Nordisk A/S (Bagsvaerd, Denmark), so was human thrombin. Bovine chymotrypsin and glandular kallikrein were obtained from Sigma Chemical Co. (St. Louis, Mo., U.S.A.). Truncated human recombinant tissue factor was obtained from Corvas (San Diego, Calif., U.S.A.). Human neutrophil cathepsin G was purified from extracts of PMNs according to the method described by Baugh and Travis (Biochemistry 15 (1976) 836-843). Human plasmin was from Kabi (Stockholm, Sweden), uPA was from Serono (Milan, Italy), human factor Xa was a gift from Dr. W. Kisiel (Albuquerque, N.M., U.S.A.), and human plasma kallikrein was a gift from Dr. I Schousboe (Copenhagen, Denmark).
(§5) Peptidyl nitroanilide substrates, S2251, S2302, S2266, S2586, S2288, S2444, S2366, and S2238 were from Kabi (Stockholm, Sweden). S7388 and M4765 were from Sigma Chemical Co. (St. Louis, Mo., U.S.A.) and FXa-1 was from Nycomed (Oslo, Norway).
(§6) Serine proteinases were incubated with various concentrations of Kunitz Domain variant for 30 min. Substrate (0.6 mM) was then added and residual proteinase activity was measured at 405 nm.
Target sequence in this assay (P03952 391-638 limits assumed): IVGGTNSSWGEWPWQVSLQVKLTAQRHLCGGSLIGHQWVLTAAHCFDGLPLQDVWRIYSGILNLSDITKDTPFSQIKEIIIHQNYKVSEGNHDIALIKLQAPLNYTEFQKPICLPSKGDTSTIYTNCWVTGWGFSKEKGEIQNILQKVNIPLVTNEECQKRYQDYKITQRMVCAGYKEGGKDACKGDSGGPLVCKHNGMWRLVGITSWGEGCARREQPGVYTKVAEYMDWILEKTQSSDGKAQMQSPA
Target sequence in this assay (P03952 20-390 limits assumed): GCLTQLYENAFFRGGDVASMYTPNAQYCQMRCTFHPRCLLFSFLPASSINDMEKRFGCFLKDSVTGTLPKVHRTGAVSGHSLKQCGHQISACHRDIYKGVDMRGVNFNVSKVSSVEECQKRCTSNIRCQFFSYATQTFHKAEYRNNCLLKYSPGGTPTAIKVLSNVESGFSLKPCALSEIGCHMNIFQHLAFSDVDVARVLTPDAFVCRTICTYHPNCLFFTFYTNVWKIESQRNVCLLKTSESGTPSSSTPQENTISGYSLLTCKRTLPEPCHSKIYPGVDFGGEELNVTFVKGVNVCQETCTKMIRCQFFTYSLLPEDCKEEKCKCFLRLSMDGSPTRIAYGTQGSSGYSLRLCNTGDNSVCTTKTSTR

[5] = molecular target: T2, glandular kallikrein (porcine pancreatic kallikrein) (Sus scrofa, UniProt P00752); assay: Inhibition of serine proteinases: glandular kallikrein; assay type: biochemical; conditions: Example 8; enzyme 1 U/ml, substrate S2266 0.6 mM, 30 min incubation; read-out: Apparent Ki (nM), Gl. kallikrein
T2 construct: purchased Sigma Chemical Co (St. Louis, Mo., U.S.A.)
Description: as §1, §2, §3, §4, §5, §6

[6] = molecular target: T3, Porcine trypsin (Sus scrofa, UniProt P00761); assay: Inhibition of serine proteinases: trypsin, peptidyl nitroanilide substrate, residual activity at 405 nm; assay type: biochemical; conditions: enzyme 10 nM, read-out: Apparent Ki (nM), Trypsin
T3 construct: purchased Novo Nordisk (Bagsvaerd, Denmark; the applicant itself)
Description: as §1, §2, §3, §4, §5, §6
(§7) The four variants were purified from yeast culture medium. Their concentrations were determined from the absorbance at 214 nm using BTPI as a standard. Porcine trypsin was obtained from Novo Nordisk A/S (Bagsvaerd, Denmark, bovine chymotrypsin (TLCK treated) was obtained from Sigma Chemical Co. (St. Louis, Mo., U.S.A.). Truncated human recombinant tissue factor was obtained from Corvas (San Diego, Calif., U.S.A.). Human plasmin was from Kabi (Stockholm, Sweden). Human neutrophil cathepsin G and elastase were purified from extracts of PMNs according to the method described by Baugh and Travis (Biochemistry 15 (1976) 836-843).
(§8) Peptidyl nitroanilide substrates, S2251, S2586 were from Kabi (Stockholm, Sweden). S7388 and M4765 were from Sigma Chemical Co. (St. Louis, Mo., U.S.A.).
(§9) Serine proteinases were incubated with various concentrations of the variants for 30 min. Substrate ([…]) was then added and residual proteinase activity was measured at 405 nm.

[7] = molecular target: T4, Bovine chymotrypsin (Bos taurus, UniProt P00766); assay: Inhibition of serine proteinases: chymotrypsin; assay type: biochemical; conditions: enzyme 2.5 nM, substrate S2586 0.6 mM, 30 min incubation
T4 construct: purchased Sigma Chemical Co. (St. Louis, Mo., U.S.A.)
Description: as §4, §5, §6, §7, §8, §9

[8] = molecular target: T5, Human plasmin (Homo sapiens, UniProt P00747); assay: Inhibition of serine proteinases: plasmin; assay type: biochemical; parameters: human plasmin and human plasma kallikrein was from Kabi (Stockholm, Sweden); purchased Kabi (Stockholm, Sweden); conditions: enzyme 4 nM, 30 min incubation, read-out: Apparent Ki (nM), Plasmin
Description: as §1, §2, §3, §4, §5, §6, §7, §8, §9
Target sequence in this assay (P00747 581-810 limits assumed): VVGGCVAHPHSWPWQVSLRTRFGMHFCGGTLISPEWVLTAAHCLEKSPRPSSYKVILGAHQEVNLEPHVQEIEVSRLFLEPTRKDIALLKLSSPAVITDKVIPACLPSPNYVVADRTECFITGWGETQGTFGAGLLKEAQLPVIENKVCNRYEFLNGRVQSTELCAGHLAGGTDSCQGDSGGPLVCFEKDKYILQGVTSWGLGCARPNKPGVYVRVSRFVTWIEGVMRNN
Target sequence in this assay (P00747 97-580 limits assumed): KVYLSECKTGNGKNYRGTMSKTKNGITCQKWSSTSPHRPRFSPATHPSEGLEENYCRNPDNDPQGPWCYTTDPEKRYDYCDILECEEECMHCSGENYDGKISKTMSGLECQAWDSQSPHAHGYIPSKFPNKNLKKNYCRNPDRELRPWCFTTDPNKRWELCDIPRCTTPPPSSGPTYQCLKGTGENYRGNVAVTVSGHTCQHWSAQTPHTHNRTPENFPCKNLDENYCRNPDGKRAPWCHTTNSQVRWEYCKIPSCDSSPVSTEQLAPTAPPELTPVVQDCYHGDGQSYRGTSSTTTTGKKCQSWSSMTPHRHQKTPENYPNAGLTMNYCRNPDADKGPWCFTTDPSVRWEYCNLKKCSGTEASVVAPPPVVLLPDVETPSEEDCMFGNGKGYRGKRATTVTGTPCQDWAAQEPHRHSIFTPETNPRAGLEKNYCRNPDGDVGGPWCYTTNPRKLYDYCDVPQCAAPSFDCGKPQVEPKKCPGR

[9] = molecular target: T1, plasma kallikrein; assay: apparent Ki; 3 nM plasma kallikrein, substrate S2302, 30 min preincubation, residual activity at 405 nm
[10] = molecular target: Porcine trypsin (porcine) (UniProt P00761); assay: apparent Ki; 10 nM trypsin, substrate S2251, 30 min preincubation, residual activity at 405 nm
[11] = molecular target: bovine chymotrypsin (TLCK treated) (bovine) (UniProt P00766); assay: apparent Ki; 2.5 nM chymotrypsin, substrate S2586, 30 min preincubation, residual activity at 405 nm
[12] = molecular target: T5, Human plasmin
[13] = molecular target: Porcine trypsin (porcine) (UniProt P00761); remark: listed apart in the source
[14] = molecular target: glandular kallikrein (as used in Example 8) (Sus scrofa (Pig)) (UniProt P00752)
[15] = molecular target: T1, plasma kallikrein
[16] = molecular target: bovine chymotrypsin (TLCK treated) (bovine) (UniProt P00766)
[17] = molecular target: glandular kallikrein (as used in Example 8) (Sus scrofa (Pig)) (UniProt P00752); assay: apparent Ki; 1 U/ml glandular kallikrein, substrate S2266, 30 min preincubation, residual activity at 405 nm
[18] = molecular target: T5, Human plasmin; assay: apparent Ki; 4 nM plasmin, substrate S2251, 30 min preincubation, residual activity at 405 nm
[19] = molecular target: T6, Human neutrophil elastase (Homo sapiens, UniProt P08246); assay: Inhibition of serine proteinases: neutrophil elastase; assay type: biochemical; conditions: Example 9; for Ki: enzyme 4 nM, substrate M4765, 30 min incubation, read-out: Apparent Ki (nM), N. elastase
T6 construct: Human neutrophil elastase and cathepsin G was purified from extracts of PMNs; from tissue; host or cells: extracts of human polymorphonuclear leukocytes (PMNs), method of Baugh and Travis
T6 sequence (P08246 30-267): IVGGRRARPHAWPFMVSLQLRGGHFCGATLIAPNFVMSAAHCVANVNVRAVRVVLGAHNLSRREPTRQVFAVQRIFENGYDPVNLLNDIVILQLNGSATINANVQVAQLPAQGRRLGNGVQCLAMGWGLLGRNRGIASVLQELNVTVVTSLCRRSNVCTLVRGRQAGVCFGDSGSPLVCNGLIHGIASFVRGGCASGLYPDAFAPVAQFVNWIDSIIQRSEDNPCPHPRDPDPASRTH
Description: as §1, §2
Serine proteinases were incubated with various concentrations of KFN 1593 for 30 min. Substrate was then added and residual proteinase activity was measured at 405 nm. […]
as §7, §8, §9

[20] = molecular target: T7, Human neutrophil cathepsin G (Homo sapiens, UniProt P08311); assay: Inhibition of serine proteinases: neutrophil cathepsin G; assay type: biochemical; conditions: Example 9; enzyme 50 nM, substrate S7388, 30 min incubation; read-out: Apparent Ki (nM), N. cathepsin G
T7 construct: Human neutrophil cathepsin G was purified from extracts of PMNs; from tissue; host or cells: extracts of human polymorphonuclear leukocytes (PMNs), method of Baugh and Travis
T7 sequence (P08311 21-255): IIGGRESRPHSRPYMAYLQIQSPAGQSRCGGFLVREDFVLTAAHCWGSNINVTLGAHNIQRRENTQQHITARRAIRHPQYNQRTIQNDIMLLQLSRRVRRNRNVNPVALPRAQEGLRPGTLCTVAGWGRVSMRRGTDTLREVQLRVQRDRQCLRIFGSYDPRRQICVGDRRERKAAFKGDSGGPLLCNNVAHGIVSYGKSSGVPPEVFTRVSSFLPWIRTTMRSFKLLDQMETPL
Description: as §1, §2, §3, §4, §5, §6, §7, §8, §9

[21] = molecular target: Human neutrophil elastase (human) (UniProt P08246); assay: apparent Ki; 4 nM neutrophil elastase, substrate M4765, 30 min preincubation, residual activity at 405 nm
[22] = molecular target: Human neutrophil elastase (human) (UniProt P08246)
[23] = molecular target: bovine chymotrypsin (TLCK treated) (bovine) (UniProt P00766); remark: listed apart in the source
[24] = molecular target: T8, granulocyte elastase (Homo sapiens, UniProt P08246); conditions: Wenzel and Tschesche 1981; cited from earlier work
T8 sequence (P08246 30-267): T6 sequence (P08246 30-267)

[25] = Example 8, substrate S2251 0.6 mM, 30 min incubation
[26] = Example 8, read-out: Apparent Ki (nM), chymotrypsin
[27] = Example 8, substrate S2251 0.6 mM
[28] = Example 9, substrate S2251, 30 min incubation
[29] = Example 9, read-out: Apparent Ki (nM), Chymotrypsin

T2 sequence (P00752 8-246): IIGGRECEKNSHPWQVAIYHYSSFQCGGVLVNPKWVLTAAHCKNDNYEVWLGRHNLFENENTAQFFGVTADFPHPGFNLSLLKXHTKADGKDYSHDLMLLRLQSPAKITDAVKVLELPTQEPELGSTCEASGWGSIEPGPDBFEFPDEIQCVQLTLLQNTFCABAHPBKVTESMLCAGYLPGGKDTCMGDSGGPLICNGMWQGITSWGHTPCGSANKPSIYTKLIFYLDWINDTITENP
T3 sequence (P00761 9-231): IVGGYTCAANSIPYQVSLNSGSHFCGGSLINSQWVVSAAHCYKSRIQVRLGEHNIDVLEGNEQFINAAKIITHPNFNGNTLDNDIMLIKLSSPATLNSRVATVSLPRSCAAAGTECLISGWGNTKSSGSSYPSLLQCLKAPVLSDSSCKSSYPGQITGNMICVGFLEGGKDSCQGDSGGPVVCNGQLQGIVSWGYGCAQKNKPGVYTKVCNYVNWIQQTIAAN

residual proteinase activity at 405 nm [1]: 5 nM
Ki [2]: 5 nM
Ki [3]: 150 nM
Substance: TFPI-2, the second Kunitz domain of tissue factor pathway inhibitor, from yeast strain KFN-1593 (from UniProt P10646)

Ki [9]: > 100 nM
Ki [10]: < 1 nM
Ki [11]: 20 nM
apparent Ki [12]: 3 nM
apparent Ki [13]: < 1 nM
apparent Ki [14]: > 100 nM
apparent Ki [15]: > 100 nM
apparent Ki [16]: 20 nM
Ki [17]: > 100 nM
Ki [18]: 3 nM
Substance: [R15K, G16A, Y17R, T19I, L39R]-TFPI-2 from yeast strain KFN-1867 (from UniProt P10646)

Ki [9]: > 100 nM
Ki [10]: < 1 nM
Ki [11]: 10 nM
apparent Ki [12]: 3 nM
apparent Ki [13]: < 1 nM
apparent Ki [14]: > 100 nM
apparent Ki [15]: > 100 nM
apparent Ki [16]: 10 nM
Ki [17]: > 100 nM
Ki [18]: 3 nM
Substance: [R15K, G16A, Y17R, T19I]-TFPI-2 from yeast strain KFN-1811 (from UniProt P10646)

Ki [21]: 2.2 nM
Ki [11]: < 5 nM
residual proteinase activity at 405 nm (apparent Ki) [22]: 2.2 nM
apparent Ki [23]: < 5 nM
Substance: [R15L]-TFPI-2 from yeast strain KFN-1928 (from UniProt P10646)

neutrophil elastase inhibition (in words) [19]: strong inhibitors
Ki [19]: 0.35 nM
Ki [20]: > 1000 nM
Ki [6, 28]: > 1000 nM
Ki [7, 29]: > 100 nM
Ki ([8]; Example 9): > 1000 nM
Substance: [R15V]-TFPI-2 [KFN 1898]

Ki [21]: 0.35 nM
apparent Ki [22]: 0.35 nM
Substance: [R15V]-TFPI-2 from yeast strain KFN-1898 (from UniProt P10646)

The next lines start with the substance.

Substance: [R15K, G16A, Y17R, T19I, L39R, E46K]-TFPI-2 [KFN 1868]
Ki [4]: > 100 nM
Ki [5]: > 100 nM
Ki [6, 25]: < 1 nM
Ki [7, 26]: 20 nM
Ki [8, 27]: 3 nM

Substance: [R15K, G16A, Y17R, T19I, L39R, E46K]-TFPI-2 from yeast strain KFN-1868 (from UniProt P10646)
Ki [9]: > 100 nM
Ki [10]: < 1 nM
Ki [11]: 20 nM
apparent Ki [12]: 3 nM
apparent Ki [13]: < 1 nM
apparent Ki [14]: > 100 nM
apparent Ki [15]: > 100 nM
apparent Ki [16]: 20 nM
Ki [17]: > 100 nM
Ki [18]: 3 nM

Substance: [R15K, G16A, Y17R, T19I, L39R]-TFPI-2 [KFN 1867]
Ki [4]: > 100 nM
Ki [5]: > 100 nM
Ki [6, 25]: < 1 nM
Ki [7, 26]: 20 nM
Ki [8, 27]: 3 nM

Substance: [R15K, G16A, Y17R, T19I]-TFPI-2 [KFN 1811]
Ki [4]: > 100 nM
Ki [5]: > 100 nM
Ki [6, 25]: < 1 nM
Ki [7, 26]: 10 nM
Ki [8, 27]: 3 nM

Substance: [R15L, G16A]-TFPI-2 [KFN 1893]
neutrophil elastase inhibition (in words) [19]: strong inhibitors
Ki [19]: 0.23 nM
Ki [20]: > 1000 nM
Ki [6, 28]: > 1000 nM
Ki [7, 29]: < 5 nM
Ki ([8]; Example 9): > 1000 nM

Substance: [R15L, G16A]-TFPI-2 from yeast strain KFN-1893 (from UniProt P10646)
Ki [21]: 0.23 nM
Ki [11]: < 5 nM
apparent Ki [22]: 0.23 nM
apparent Ki [23]: < 5 nM

Substance: [R15L]-TFPI-2 [KFN 1928]
neutrophil elastase inhibition (in words) [19]: strong inhibitors
Ki [19]: 2.2 nM
Ki [20]: > 1000 nM
Ki [6, 28]: > 1000 nM
Ki [7, 29]: < 5 nM
Ki ([8]; Example 9): > 1000 nM

Substance: [R15V, G16A]-TFPI-2 [KFN 1897]
neutrophil elastase inhibition (in words) [19]: strong inhibitors
Ki [19]: 0.46 nM
Ki [20]: > 1000 nM
Ki [6, 28]: > 1000 nM
Ki [7, 29]: > 100 nM
Ki ([8]; Example 9): > 1000 nM

Substance: [R15V, G16A]-TFPI-2 from yeast strain KFN-1897 (from UniProt P10646)
Ki [21]: 0.46 nM
apparent Ki [22]: 0.46 nM

Substance: aprotinin (1-58, Ala15)
effect on granulocyte elastase (in words) [24]: weak effect
